Several values for one entry are separate records, joined by “and”; a condition that tells them apart may be missing. Equal entries are not always repeated. One block for each substance: values may come before it.
Tests used:
[1] = target: Caldivirga maquilingensis type III sulfide:quinone oxidoreductase, wild type, His-tagged (Caldivirga maquilingensis IC-167); assay: SEC
[2] = target: CmSQR truncated 1 (T1), lacking the complete last C-terminal helix (Caldivirga maquilingensis IC-167); assay: SEC
[3] = target: CmSQR truncated 1 (T1), lacking the complete last C-terminal helix (Caldivirga maquilingensis IC-167); assay: native gel or EMSA
[4] = target: CmSQR truncated 2 (T2), lacking the last two C-terminal helices, His-tagged (Caldivirga maquilingensis IC-167); assay: SEC
[5] = target: CmSQR truncated 2 (T2), lacking the last two C-terminal helices, His-tagged (Caldivirga maquilingensis IC-167); assay: native gel or EMSA
[6] = target: CmSQR truncated 2 (T2), lacking the last two C-terminal helices, His-tagged (Caldivirga maquilingensis IC-167); assay: cross-linking

stoichiometry N [1]: 2
Substance: Caldivirga maquilingensis type III sulfide:quinone oxidoreductase, wild type, His-tagged (enzyme)

stoichiometry N [2]: 2
stoichiometry N [3]: 2
Substance: CmSQR truncated 1 (T1), lacking the complete last C-terminal helix (domain or fragment)

stoichiometry N [4]: 2
stoichiometry N [5]: 2 and 3
stoichiometry N [6]: 2 and 3
Substance: CmSQR truncated 2 (T2), lacking the last two C-terminal helices, His-tagged (domain or fragment)
